Here are results for one protein from ChEMBL document CHEMBL4024756, “Identification of 4-Phenoxyquinoline Based Inhibitors for L1196M Mutant of Anaplastic Lymphoma Kinase by Structure-Based Design” (J Med Chem, 2017).

Common to all, as to conditions: Homo sapiens
Substrate in series [1]: Cc1ccc(Oc2ccnc3cc(-c4cnn(C5CCNCC5)c4)ccc23)cc1
Substrate in series [2]: Cc1ccc(Oc2ccnc3cc(-c4cnn(C5CCNCC5)c4)ccc23)cc1
The source holds these as a separate data set.

Substrate in series [3]: Cc1ccc(Oc2ccnc3cc(-c4cnn(C5CCNCC5)c4)ccc23)cc1
This is another data set of the same source.

Substrate in series [4]: Cc1ccc(Oc2ccnc3cc(-c4cnn(C5CCNCC5)c4)ccc23)cc1
This is another data set of the same source.

Substrate in series [5]: Cc1ccc(Oc2ccnc3cc(-c4cnn(C5CCNCC5)c4)ccc23)cc1
This is another data set of the same source.

B1: ALK tyrosine kinase receptor (Homo sapiens), Q9UM73 L1196M (protein)
chain: MGAIGLLWLLPLLLSTAAVGSGMGTGQRAGSPAAGPPLQPREPLSYSRLQRKSLAVDFVVPSLFRVYARDLLLPPSSSELKAGRPEARGSLALDCAPLLRLLGPAPGVSWTAGSPAPAEARTLSRVLKGGSVRKLRRAKQLVLELGEEAILEGCVGPPGEAAVGLLQFNLSELFSWWIRQGEGRLRIRLMPEKKASEVGREGRLSAAIRASQPRLLFQIFGTGHSSLESPTNMPSPSPDYFTWNLTWIMKDSFPFLSHRSRYGLECSFDFPCELEYSPPLHDLRNQSWSWRRIPSEEASQMDLLDGPGAERSKEMPRGSFLLLNTSADSKHTILSPWMRSSSEHCTLAVSVHRHLQPSGRYIAQLLPHNEAAREILLMPTPGKHGWTVLQGRIGRPDNPFRVALEYISSGNRSLSAVDFFALKNCSEGTSPGSKMALQSSFTCWNGTVLQLGQACDFHQDCAQGEDESQMCRKLPVGFYCNFEDGFCGWTQGTLSPHTPQWQVRTLKDARFQDHQDHALLLSTTDVPASESATVTSATFPAPIKSSPCELRMSWLIRGVLRGNVSLVLVENKTGKEQGRMVWHVAAYEGLSLWQWMVLPLLDVSDRFWLQMVAWWGQGSRAIVAFDNISISLDCYLTISGEDKILQNTAPKSRNLFERNPNKELKPGENSPRQTPIFDPTVHWLFTTCGASGPHGPTQAQCNNAYQNSNLSVEVGSEGPLKGIQIWKVPATDTYSISGYGAAGGKGGKNTMMRSHGVSVLGIFNLEKDDMLYILVGQQGEDACPSTNQLIQKVCIGENNVIEEEIRVNRSVHEWAGGGGGGGGATYVFKMKDGVPVPLIIAAGGGGRAYGAKTDTFHPERLENNSSVLGLNGNSGAAGGGGGWNDNTSLLWAGKSLQEGATGGHSCPQAMKKWGWETRGGFGGGGGGCSSGGGGGGYIGGNAASNNDPEMDGEDGVSFISPLGILYTPALKVMEGHGEVNIKHYLNCSHCEVDECHMDPESHKVICFCDHGTVLAEDGVSCIVSPTPEPHLPLSLILSVVTSALVAALVLAFSGIMIVYRRKHQELQAMQMELQSPEYKLSKLRTSTIMTDYNPNYCFAGKTSSISDLKEVPRKNITLIRGLGHGAFGEVYEGQVSGMPNDPSPLQVAVKTLPEVCSEQDELDFLMEALIISKFNHQNIVRCIGVSLQSLPRFILMELMAGGDLKSFLRETRPRPSQPSSLAMLDLLHVARDIACGCQYLEENHFIHRDIAARNCLLTCPGPGRVAKIGDFGMARDIYRASYYRKGGCAMLPVKWMPPEAFMEGIFTSKTDTWSFGVLLWEIFSLGYMPYPSKSNQEVLEFVTSGGRMDPPKNCPGPVYRIMTQCWQHQPEDRPNFAIILERIEYCTQDPDVINTALPIEYGPLVEEEEKVPVRPKDPEGVPPLLVSQQAKREEERSPAAPPPLPTTSSGKAAKKPTAAEISVRVPRGPAVEGGHVNMAFSQSNPPSELHKVHGSRNKPTSLWNPTYGSWFTEKPTKKNNPIAKKEPHDRGNLGLEGSCTVPPNVATGRLPGASLLLEPSSLTANMKEVPLFRLRHFPCGNVNYGYQQQGLPLEAATAPGAGHYEDTILKSKNSMNQPGP
On to B1, for which the Michaelis constant (Km) in series [1] turned out to be 32.6 µM; in series [2], 58.8 µM; in series [3] it was 94.6 µM; in series [4], 860 µM; in series [5], 298 µM.
